Experimental data taken from patent US20090253630A1.

Biological target: PTHR-emGFP expressed in transfected HEK 293 cells
Experiment: cell-based or functional assay

Work on “PTH(1-38) (from UniProt P01270 32-69) (peptide)” yielded a PTHR1 internalization at 20 min, 100 nM compound, percent of vehicle only control (baseline=100%) (% of vehicle only control) of 166, a PTHR1 internalization at 40 min, 100 nM compound, percent of vehicle only control (baseline=100%) (% of vehicle only control) of 177 and a PTHR1 internalization at 60 min, 100 nM compound, percent of vehicle only control (baseline=100%) (% of vehicle only control) of 224. The PTHR1 internalization at 180 min, 100 nM compound, percent of vehicle only control (baseline=100%) (% of vehicle only control) was 175.
